Target: ligands on KG1a cells (human (endogenous in KG1a))
Experiment: flow cytometry on cells; KG1a cells stained with 10 ug/ml E-selectin protein in HBSS with 5% FBS and 2 mM CaCl2, 4 °C, 20 min; detected by Strep-tag II mAb and PE anti-mouse IgG1

percent of the live KG1a population bound: 86%
B1: E-S6 (monomeric full-length extracellular mouse E-selectin) (domain or fragment)
chain: WYYNASSELMTYDEASAYCQRDYTHLVAIQNKEEINYLNSNLKHSPSYYWIGIRKVNNVWIWVGTGKPLTEEAQNWAPGEPNNKQRNEDCVEIYIQRTKDSGMWNDERCNKKKLALCYTASCTNASCSGHGECIETINSYTCKCHPGFLGPNCEQAVTCKPQEHPDYGSLNCSHPFGPFSYNSSCSFGCKRGYLPSSMETTVRCTSSGEWSAPAPACHVVECEALTHPAHGIRKCSSNPGSYPWNTTCTFDCVEGYRRVGAQNLQCTSSGIWDNETPSCKAVTCDAIPQPQNGFVSCSHSTAGELAFKSSCNFTCEQSFTLQGPAQVECSAQGQWTPQIPVCKAVQCEALSAPQQGNMKCLPSASGPFQNGSSCEFSCEEGFELKGSRRLQCGPRGEWDSKKPTCSAVKCDDVPRPQNGVMECAHATTGEFTYKSSCAFQCNEGFSLHGSAQLECTSQGKWTQEVPSCQVVQCPSLDVPGKMNMSCSGTAVFGTVCEFTCPDDWTLNGSAVLTCGATGRWSGMPPTCEAPVSPTRP

Source: paper PMC7076219
